Experimental data reported in the Immune Epitope Database (IEDB).

Key:
HLA-A*30:02 = experiment: IEDB peptide-MHC binding, purified MHC/competitive/radioactivity; filed as Kd, often an IC50 or EC50 that approximates it; ≥ and ≤ were set here for values at or beyond the usual limits of such assays
HLA-A*29:02 = experiment: as above
HLA-A*24:02 = experiment: as above
HLA-A*01:01 = experiment: as above
HLA-A*23:01 = experiment: as above
HLA-A*26:01 = experiment: as above
HLA-A*32:01 = experiment: as above
HLA-B*08:01 = experiment: as above; details: source organism: Vaccinia virus WR
HLA-B*44:02 = experiment: IEDB peptide-MHC binding, purified MHC/direct/fluorescence; filed as Kd, often an IC50 or EC50 that approximates it; ≥ and ≤ were set here for values at or beyond the usual limits of such assays
HLA-B*18:01 = experiment: as above
HLA-A*33:01 = experiment: IEDB peptide-MHC binding, purified MHC/competitive/radioactivity; filed as Kd, often an IC50 or EC50 that approximates it; ≥ and ≤ were set here for values at or beyond the usual limits of such assays; details: source organism: Triticum aestivum
HLA-A*03:01 = experiment: as above; details: source organism: Triticum aestivum
HLA-A*11:01 = experiment: as above; details: source organism: Triticum aestivum
HLA-A*68:01 = experiment: as above; details: source organism: Triticum aestivum
HLA-A*31:01 = experiment: as above; details: source organism: Triticum aestivum
HLA-B*40:01 = experiment: IEDB peptide-MHC binding, purified MHC/direct/fluorescence; filed as Kd, often an IC50 or EC50 that approximates it; ≥ and ≤ were set here for values at or beyond the usual limits of such assays; details: source organism: Amur virus
[1] = source organism: SARS coronavirus Tor2
[2] = source organism: Mammarenavirus juninense
[3] = source organism: Vaccinia virus WR
[4] = source organism: Mammarenavirus lassaense
[5] = source organism: Lymphocytic choriomeningitis virus (strain Armstrong)
[6] = source organism: Mammarenavirus machupoense
[7] = source organism: Triticum aestivum
[8] = source organism: Mammarenavirus guanaritoense
[9] = source organism: Dengue virus 2 Jamaica/1409/1983

Question: For LYEQVVMDY, which Kd (HLA-A*30:02; [1]) is on record?
Answer: 0.173 µM

Question: What about the Kd (HLA-A*29:02; [1]) of the same sequence?
Answer: 0.0122 µM

Question: And the Kd (HLA-A*24:02; [1])?
Answer: ≥ 40.5 µM

Question: What about the Kd (HLA-A*01:01; [1]) of the same sequence?
Answer: 15.1 µM

Question: And the Kd (HLA-A*23:01; [1])?
Answer: ≥ 58.2 µM

Question: What about the Kd (HLA-A*26:01; [1]) of the same sequence?
Answer: ≥ 22.6 µM

Question: MLMLVNDRLL was tested. Which Kd (HLA-A*29:02; [2]) did it give?
Answer: ≥ 20 µM

Question: And the Kd (HLA-A*24:02; [2])?
Answer: ≥ 70.3 µM

Question: And the Kd (HLA-A*23:01; [2])?
Answer: 11.4 µM

Question: With MLMNHVANF as the sequence, how does the Kd (HLA-A*32:01; [3]) read?
Answer: 0.00828 µM

Question: And the Kd (HLA-B*08:01)?
Answer: 0.00333 µM

Question: For MTNTMRNAI, which Kd (HLA-A*32:01; [3]) is on record?
Answer: 0.106 µM

Question: How did the Kd (HLA-A*30:02; [4]) turn out when PEDPVEVALY was run?
Answer: 1.43 µM

Question: And the Kd (HLA-A*29:02; [4])?
Answer: ≥ 43.4 µM

Question: What about the Kd (HLA-A*24:02; [4]) of the same sequence?
Answer: ≥ 70.3 µM

Question: And the Kd (HLA-A*01:01; [4])?
Answer: ≥ 41 µM

Question: And the Kd (HLA-A*23:01; [4])?
Answer: ≥ 70 µM

Question: And the Kd (HLA-A*26:01; [4])?
Answer: ≥ 69.7 µM

Question: With QEGAMHTAL as the sequence, how does the Kd (HLA-B*44:02; source organism: Dengue virus) read?
Answer: 6.66 µM

Question: What about the Kd (HLA-B*18:01; source organism: Dengue virus) of the same sequence?
Answer: 0.0395 µM

Question: How did the Kd (HLA-A*30:02; [1]) turn out when QMYKTPTLKY was run?
Answer: 0.0552 µM

Question: And the Kd (HLA-A*29:02; [1])?
Answer: 0.00681 µM

Question: What about the Kd (HLA-A*24:02; [1]) of the same sequence?
Answer: ≥ 70.3 µM

Question: And the Kd (HLA-A*01:01; [1])?
Answer: 8.92 µM

Question: What about the Kd (HLA-A*23:01; [1]) of the same sequence?
Answer: ≥ 70 µM

Question: What about the Kd (HLA-A*26:01; [1]) of the same sequence?
Answer: 3.12 µM

Question: QYLIIQNRTW was tested. Which Kd (HLA-A*29:02; [5]) did it give?
Answer: 0.687 µM

Question: And the Kd (HLA-A*24:02; [5])?
Answer: 0.693 µM

Question: And the Kd (HLA-A*23:01; [5])?
Answer: 0.0574 µM

Question: Which results are given for RCWLIRNGSY?
Answer: Kd (HLA-A*30:02; [6]): 0.0161 µM; Kd (HLA-A*29:02; [6]): 4.81 µM; Kd (HLA-A*24:02; [6]): ≥ 70.3 µM; Kd (HLA-A*01:01; [6]): ≥ 37.7 µM; Kd (HLA-A*23:01; [6]): ≥ 34.7 µM; Kd (HLA-A*26:01; [6]): ≥ 69.7 µM

Question: RMLLNRFTM was tested. Which Kd (HLA-A*32:01; source organism: Dengue virus 1 Brazil/97-11/1997) did it give?
Answer: 0.0194 µM

Question: Which results are given for SFQQPQQQY?
Answer: Kd (HLA-A*33:01): ≥ 77.7 µM; Kd (HLA-A*03:01): ≥ 78 µM; Kd (HLA-A*30:02; [7]): ≥ 63.2 µM; Kd (HLA-A*11:01): ≥ 77.9 µM; Kd (HLA-A*29:02; [7]): 0.0841 µM; Kd (HLA-A*24:02; [7]): ≥ 77.6 µM; Kd (HLA-A*01:01; [7]): ≥ 68.9 µM; Kd (HLA-A*23:01; [7]): ≥ 77.8 µM; Kd (HLA-A*68:01): ≥ 77.7 µM; Kd (HLA-A*26:01; [7]): ≥ 43.7 µM; Kd (HLA-A*31:01): ≥ 77.9 µM

Question: For SMSEIINNI, which Kd (HLA-A*32:01; [3]) is on record?
Answer: 0.245 µM

Question: Which Kd (HLA-A*32:01; source organism: Dengue virus 3 Martinique/1243/1999) does the source give for SRAWNVWEVE here?
Answer: ≥ 26.5 µM

Question: Which results are given for SWLDFDEKLV?
Answer: Kd (HLA-A*30:02; [8]): 4.94 µM; Kd (HLA-A*29:02; [8]): ≥ 71.4 µM; Kd (HLA-A*24:02; [8]): 14 µM; Kd (HLA-A*01:01; [8]): 6.1 µM; Kd (HLA-A*23:01; [8]): 0.32 µM; Kd (HLA-A*26:01; [8]): ≥ 69.7 µM

Question: What does the source list for TSQKSIVAY?
Answer: Kd (HLA-A*30:02; [1]): 0.0254 µM; Kd (HLA-A*29:02; [1]): 2.08 µM; Kd (HLA-A*24:02; [1]): ≥ 77.6 µM; Kd (HLA-A*01:01; [1]): 1.18 µM; Kd (HLA-A*23:01; [1]): ≥ 77.8 µM; Kd (HLA-A*26:01; [1]): 8.25 µM

Question: VGRAWENTI was tested. Which Kd (HLA-A*30:02; [4]) did it give?
Answer: 0.0991 µM

Question: What about the Kd (HLA-A*29:02; [4]) of the same sequence?
Answer: ≥ 78.9 µM

Question: What about the Kd (HLA-A*24:02; [4]) of the same sequence?
Answer: 8.77 µM

Question: And the Kd (HLA-A*01:01; [4])?
Answer: ≥ 26.7 µM

Question: What about the Kd (HLA-A*23:01; [4]) of the same sequence?
Answer: 2.95 µM

Question: What about the Kd (HLA-A*26:01; [4]) of the same sequence?
Answer: ≥ 77.9 µM

Question: With VYIGDPAQL as the sequence, how does the Kd (HLA-A*30:02; [1]) read?
Answer: ≥ 78.9 µM

Question: What about the Kd (HLA-A*29:02; [1]) of the same sequence?
Answer: ≥ 22.8 µM

Question: And the Kd (HLA-A*24:02; [1])?
Answer: 0.107 µM

Question: And the Kd (HLA-A*01:01; [1])?
Answer: ≥ 78.1 µM

Question: What about the Kd (HLA-A*23:01; [1]) of the same sequence?
Answer: 1.18 µM

Question: And the Kd (HLA-A*26:01; [1])?
Answer: ≥ 77.9 µM

Question: Which results are given for WCEFVDFSV?
Answer: Kd (HLA-A*30:02; [8]): 7.9 µM; Kd (HLA-A*29:02; [8]): 2.47 µM; Kd (HLA-A*24:02; [8]): ≥ 77.5 µM; Kd (HLA-A*01:01; [8]): 0.341 µM; Kd (HLA-A*23:01; [8]): ≥ 53.3 µM; Kd (HLA-A*26:01; [8]): ≥ 77.9 µM

Question: Which results are given for WYAQIQPHW?
Answer: Kd (HLA-A*24:02; [9]): 0.0243 µM; Kd (HLA-A*23:01; [9]): 0.0621 µM

Question: For YECETYKEL, which Kd (HLA-B*44:02; source organism: Amur virus) is on record?
Answer: ≥ 20 µM

Question: And the Kd (HLA-B*40:01)?
Answer: 0.0148 µM

Question: And the Kd (HLA-B*18:01; source organism: Amur virus)?
Answer: 0.0053 µM

Question: Which Kd (HLA-A*30:02; [4]) does the source give for YEEFCNAVY here?
Answer: 0.762 µM

Question: What about the Kd (HLA-A*29:02; [4]) of the same sequence?
Answer: 0.426 µM

Question: What about the Kd (HLA-A*24:02; [4]) of the same sequence?
Answer: ≥ 77.5 µM

Question: What about the Kd (HLA-A*01:01; [4]) of the same sequence?
Answer: 5.37 µM

Question: And the Kd (HLA-A*23:01; [4])?
Answer: 10.1 µM

Question: What about the Kd (HLA-A*26:01; [4]) of the same sequence?
Answer: ≥ 77.9 µM
